Entries after “also recorded” stand apart in the source; their conditions may differ.
B1: CXCL4: chemokine CXCL4 (also known as PF4), Peprotech, used at 50 ng/mL (protein, UniProt P02776 32-101, looked up)
Platelet factor 4: EAEEDGDLQCLCVKTTSQVRPRHITSLEVIKAGPHCPTAQLIATLKNGRKICLDLQAPLYKKIIKKLLES
B2: CXCL7: chemokine CXCL7 (also known as PPBP), Peprotech, used at 50 ng/mL (protein, UniProt P02775 59-128, looked up)
Neutrophil-activating peptide …: AELRCMCIKTTSGIHPKNIQSLEVIGKGTHCNQVEVIATLKDGRKICLDPDAPRIKKIVQKKLAGDESAD
modifications: Neutrophil-activating peptide 2
notes: chemokine CXCL7 (also known as PPBP), Peprotech, used at 50 ng/mL

Legend:
[1] = test system: CMML patients; test: FISM clinical trial cohort of CMML patients treated with Decitabine; assay type: in vivo, human; conditions: DAC 20 mg/m2/day x 5 days
Procedure: To determine whether particular genetic or epigenetic abnormalities are associated with DMTi sensitivity or resistance in this disease a cohort of primary CMML cases was studied. Bone marrow mononuclear cells (BM MNC) were collected at the time of diagnosis from 40 patients with de novo CMML. All patients included in this study were enrolled in a clinical trial of the Fondazione Italiana per le Sindromi Mielodisplastiche (FISM) and treated with DAC single agent as front-line therapy (20 mg/m^2/day×5 days) and response was evaluated after 6 cycles of treatment. Responsive patients (n=20) were defined as those who achieved either complete remission (CR), marrow complete remission (mCR), partial remission (PR) or hematological improvement (HI), as defined by the 2006 International Working Group (IWG) response criteria in myelodysplasia (see, e.g., Cheson, B. D., Blood. 2006; 108(2):419-425). Patients with either stable or progressive disease (SD and PD, respectively) were considered as having primary resistance to DAC (n=20). […] Using MiSeq to sequence DNA isolated from the diagnostic BM MNC targeted re-sequencing of a panel of genes mutated at frequencies greater than 5% in CMML was performed: SRSF2, TET2, ASXL1, NRAS, DNMT3A, RUNX1, U2AF1, TP53, JAK2, KIT, KRAS, SF3B1, EZH2, IDH1, and IDH2. […]

[2] = test system: CMML patients; test: GFM clinical trial cohort of CMML patients treated with Decitabine; assay type: in vivo, human; conditions: DAC 20 mg/m2/day x 5 days
Procedure: In order to independently validate the predictive accuracy of the SVM classifier, a second cohort of patients on which to test its performance was identified. Twenty-eight additional diagnostic CMML specimens from patients enrolled in a clinical trial from the Groupe Francophone des Myelodysplasies (GFM), all of whom had been treated with the same DAC regimen of 20 mg/m^2/day×5 days were collected and subjected to ERRBS (Table 2, Table 3). Specimens in this cohort consisted of sorted monocytes from peripheral blood (PB) and the cohort included 12 responder and 16 non-responder patients. The SVM classifier was applied blindly to these samples, without any prior knowledge of the therapeutic response labels for the cohort. Due to the stochastic nature of ERRBS, the CpG coverage is never identical across all samples, thereby leading to missing values for some regions of interest. In effect, only 6 out of the 21 features were present in all 28 GFM cohort samples. Therefore, an SVM classifier was built on these six shared features by training it on the 39 samples of the FISM cohort and then applying the trained classifier on the GFM cohort. As shown in FIG. 8D and FIG. 11B, despite this limitation the 6-feature classifier was still capable of correctly predicting response for 20/28 patients in the GFM cohort (accuracy=71%). […]

[3] = test system: primary human CD34+ cells; test: CD34+ cell liquid culture, live cell number and viability by trypan blue exclusion; assay type: cell-based; conditions: 10 nM DAC daily for 3 days, with or without CXCL4/CXCL7 50 ng/mL each
Procedure: CD34+ cells were treated with one dose of CXCL4, CXCL7, or both (50 ng/mL each) or vehicle (PBS/0.1% BSA) and daily doses of 10 nM DAC for 3 days. After 3 days, live cell number (A) and viability (B) were assessed by trypan blue exclusion, and apoptosis (C) was analyzed by Annexin V and propodium iodide staining. The results shown are from one representative experiment out of two independent experiments.
Therefore, it was hypothesized that overabundance of CXCL4 and CXCL7 in the bone marrow microenvironment may act to overcome the effects of DAC. To test this, primary human CD34+ cells were cultured for 3 days in vitro with CXCL4 (50 ng/mL), CXCL7 (50 ng/mL) or a combination of both chemokines in either the presence or absence of low-dose DAC (10 nM) and then plated them in methylcellulose to test their clonogenic potential.
(§1) Cell culture and colony forming assays: CD34+ cells were isolated from cryopreserved BM MNC from femoral head specimens using the Miltenyi Biotec CD34 microbead isolation kit (San Diego, CA) per the manufacturer's instructions. For CMML cells, the cryopreserved BM MNC were rapidly thawed at 37° C. and treated with DNAse to prevent cell clumping. […] Live cell number and viability were determined by trypan blue exclusion. […] Colonies were counted after 12 to 15 days.

[4] = test system: bone marrow cells; conditions: in vitro; cited from earlier work
[5] = test system: primary CMML cells (BM MNC); test: Viability of primary CMML BM MNC in liquid culture; assay type: cell-based, human; conditions: chemokine 50 ng/mL plus 10 nM DAC, 72 h
Procedure: (§2) CD34+ cells were treated with one dose of CXCL4, CXCL7, or both (50 ng/mL each) or vehicle (PBS/0.1% BSA) and daily doses of 10 nM DAC for 3 days. After 3 days of in vitro treatment with DAC, the cells were plated in methylcellulose and incubated for 12-15 days before colonies were counted. Data represent mean+standard deviation (SD). […] Shown in the three panels are the results of three independent experiments. […] CMML MNC were treated in vitro for 72 h with 10 nM DAC alone or in the presence of 50 ng/mL of CXCL4, CXCL7, or both. Data represent mean+standard deviation (SD).
Finally, the ability of CXCL4 and CXCL7 to induce resistance in primary CMML cells was tested. BM MNC from diagnostic specimens collected from 3 patients known to be sensitive to DAC were placed in liquid culture and treated for 72 h with 10 nM DAC in the presence or absence of 50 ng/mL of CXCL4, CXCL7 or a combination of both. Viability was assessed after 72 hours.
Cell culture and colony forming assays: CD34+ cells were isolated from cryopreserved BM MNC from femoral head specimens using the Miltenyi Biotec CD34 microbead isolation kit (San Diego, CA) per the manufacturer's instructions. […] Live cell number and viability were determined by trypan blue exclusion. […] Colonies were counted after 12 to 15 days.

[6] = test system: primary human CD34+ cells; test: Colony forming assay in methylcellulose; assay type: cell-based; conditions: chemokine 50 ng/mL (each) plus 10 nM DAC for 3 days
Procedure: as §2
as §1, with “clumping. Cells were plated in pre-stimulation media (IMDM with 20% BIT (Stem Cell Technologies, Vancouver, BC, Canada), IL-6 (20 ng/mL), SCF (100 ng/ml), TPO (100 ng/mL), FLT3L (10 ng/mL); Peprotech, Rocky Hill, N.J.) and recovered overnight.” for “clumping.”

| Molecule | Median Survival ([1]; non-responders (n=20)) [months] | Median Survival ([1]; responders (n=20)) [months] | Median Survival ([2]; non-responders (n=16)) [months] | Median Survival ([2]; responders (n=12)) [months] | cell proliferation (live cell number) [3] | chemosensitivity of bone marrow cells to 5-fluorouracil [4] | effect of chemokine on the DAC-induced decrease in viability of primary CMML cells [5] | effect of chemokine on DAC-induced inhibition of colony formation [6] |
| --- | --- | --- | --- | --- | --- | --- | --- | --- |
| Nc1ncn([C@H]2C[C@H](O)[C@@H](CO)O2)c(=O)n1 [DAC, Decitabine] | 13.5 | 26.5 | 14.5 | 39 | – | – | – | – |
| B1 | – | – | – | – | did not affect cell proliferation | can reduce the chemosensitivity of bone marrow cells to 5-fluorouracil | abrogated the effect of DAC; also recorded: this effect was lost | did not have a significant impact on DAC-induced colony inhibition |
| B2 | – | – | – | – | did not affect cell proliferation | can reduce the chemosensitivity of bone marrow cells to 5-fluorouracil | abrogated the effect of DAC; also recorded: this effect was lost | did not have a significant impact on DAC-induced colony inhibition |
